Assays:
[1] = target: T1, rHis-BoTNF-α (pET-30a(+)-BoTNF-α, E. coli BL21(DE3)) (牛 (bovine), UniProt Q06599 78-234); experiment: Western blot with HRP-3C1 1:1000
T1 construct: Own construct; also called rHis-BoTNF-α纯化蛋白; not shown: N-terminal His tag and vector residues of pET-30a(+) up to the BamHI site
T1 sequence (looked up): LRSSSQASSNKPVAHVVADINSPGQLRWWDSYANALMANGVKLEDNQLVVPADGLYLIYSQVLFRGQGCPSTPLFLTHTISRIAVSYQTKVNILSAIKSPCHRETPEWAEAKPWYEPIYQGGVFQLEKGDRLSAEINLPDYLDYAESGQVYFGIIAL

[2] = target: T2, 商品化rBoTNF-α (美国R&D公司, 2279-BT-025) (牛 (bovine), UniProt Q06599 78-234); experiment: indirect ELISA, protein coated at 0.5μg/mL, 3C1 hybridoma supernatant
T2 construct: Commercial protein
T2 sequence (looked up): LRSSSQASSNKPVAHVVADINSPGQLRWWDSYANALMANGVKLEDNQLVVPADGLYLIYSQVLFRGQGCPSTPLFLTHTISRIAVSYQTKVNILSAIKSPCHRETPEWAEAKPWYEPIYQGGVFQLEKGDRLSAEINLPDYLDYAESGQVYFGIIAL

[3] = target: T3, 天然牛TNF-α (牛外周血单核细胞) (牛 (bovine)) (UniProt Q06599); experiment: intracellular flow cytometry, PMA/ionomycin-stimulated bovine PBMC, FITC-3C1 0.5μg/mL
T3 sequence (looked up): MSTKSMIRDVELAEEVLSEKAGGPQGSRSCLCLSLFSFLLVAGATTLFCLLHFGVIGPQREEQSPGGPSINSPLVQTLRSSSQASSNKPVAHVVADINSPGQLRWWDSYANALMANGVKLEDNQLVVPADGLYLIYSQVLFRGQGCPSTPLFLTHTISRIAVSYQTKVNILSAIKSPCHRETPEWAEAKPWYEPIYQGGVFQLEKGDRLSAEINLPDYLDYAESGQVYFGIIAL

[4] = target: T4, 天然羊TNF-α (羊外周血单核细胞) (羊 (sheep)) (UniProt P23383); experiment: intracellular flow cytometry, unstimulated sheep PBMC (control well), FITC-3C1 0.5μg/mL
T4 sequence (looked up): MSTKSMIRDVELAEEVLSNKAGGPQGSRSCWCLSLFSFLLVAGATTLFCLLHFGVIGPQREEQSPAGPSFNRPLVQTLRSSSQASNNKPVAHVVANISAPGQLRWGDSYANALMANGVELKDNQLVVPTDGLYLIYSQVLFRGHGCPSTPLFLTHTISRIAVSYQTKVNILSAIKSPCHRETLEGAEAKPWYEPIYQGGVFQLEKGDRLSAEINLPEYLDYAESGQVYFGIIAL

[5] = target: T3, 天然牛TNF-α (牛外周血单核细胞) (牛 (bovine)); experiment: intracellular flow cytometry, unstimulated bovine PBMC (control well), FITC-3C1 0.5μg/mL
[6] = target: T5, rhuTNF-α (PeproTech, 300-01A-50) (UniProt P01375 77-233); experiment: indirect ELISA, coated protein, 3C1 hybridoma supernatant
T5 construct: Commercial protein
T5 sequence (P01375 77-233 limits assumed): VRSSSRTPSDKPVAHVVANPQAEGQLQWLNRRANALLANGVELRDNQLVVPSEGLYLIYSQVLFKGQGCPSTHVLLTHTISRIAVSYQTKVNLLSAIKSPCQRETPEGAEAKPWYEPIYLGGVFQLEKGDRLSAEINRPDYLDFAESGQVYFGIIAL

[7] = target: T6, rPoTNF-α (美国R&D公司, 690-PT-025) (UniProt P23563 77-232); experiment: as above
T6 construct: Commercial protein
T6 sequence (P23563 77-232 limits assumed): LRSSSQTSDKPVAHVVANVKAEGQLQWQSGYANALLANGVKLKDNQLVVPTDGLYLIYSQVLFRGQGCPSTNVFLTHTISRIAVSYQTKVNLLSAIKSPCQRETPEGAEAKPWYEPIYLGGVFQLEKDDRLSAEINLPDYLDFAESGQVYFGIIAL

[8] = target: T7, rBoIFN-γ (美国R&D公司, 2300-BG-02) (UniProt P07353 24-166); experiment: as above
T7 construct: Commercial protein; species read from the label Bo
T7 sequence (looked up): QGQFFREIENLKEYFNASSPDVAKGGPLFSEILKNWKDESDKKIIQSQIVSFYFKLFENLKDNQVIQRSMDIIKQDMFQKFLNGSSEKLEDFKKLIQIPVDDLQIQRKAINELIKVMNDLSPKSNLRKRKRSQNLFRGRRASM

[9] = target: T8, rBoIL-2 (Kingfisher-Biotech公司, rp0026B-005) (UniProt P05016 21-155); experiment: as above
T8 construct: Commercial protein
T8 sequence (looked up): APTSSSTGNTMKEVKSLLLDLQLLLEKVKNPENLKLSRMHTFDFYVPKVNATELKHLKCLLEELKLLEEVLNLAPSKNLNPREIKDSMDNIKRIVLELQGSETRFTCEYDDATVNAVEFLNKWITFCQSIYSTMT

[10] = target: T9, rGST-BoTNF-α (pGEX-6p-1-BoTNF-α, E. coli BL21) (牛 (bovine)) (UniProt Q06599); experiment: indirect ELISA, rGST-BoTNF-α coated at 0.5μg/mL, serially diluted 3C1 ascites, cut-off P/N≥2.1
T9 sequence (looked up): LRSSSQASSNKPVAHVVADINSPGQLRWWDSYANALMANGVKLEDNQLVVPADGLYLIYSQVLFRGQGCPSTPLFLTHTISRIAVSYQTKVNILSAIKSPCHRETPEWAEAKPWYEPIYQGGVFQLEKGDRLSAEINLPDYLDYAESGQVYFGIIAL

[11] = target: T4, 天然羊TNF-α (羊外周血单核细胞) (羊 (sheep)); experiment: intracellular flow cytometry, PMA/ionomycin-stimulated sheep PBMC, FITC-3C1 0.5μg/mL

B1: 单克隆抗体3C1 (具牛、羊交叉反应的抗TNF-α单克隆抗体, 杂交瘤 CCTCC NO:C2019129) (antibody, V domains shown)
VH: QVQLKQSGPGLVQPSQSLSITCTVSGFSLTNFSVHWVRQPPGKGLEWLGVMWSGGSTDYNAAFISRLSIIKDNSKSQVFFKMNGLQADDTAIYYCARSGPYYYSLDYWGQGTSVTVSS
VL: DIQMTQSPASLSASVGETVTITCRASENIYIYLAWYQQKQGKSPQLLVYNAKTLAEGVPSRFSGSGSGTQFSLNINSLQPEDFGSYYCQHHYGTPWTFGGGTKLEIK
notes: Used as ascites, hybridoma supernatant, HRP-labelled (HRP-3C1) or FITC-labelled (FITC-3C1) antibody, depending on the assay; also called mAb 3C1; MAb 3C1
binding result [1]: binds | binding result [2]: binds | 分泌牛TNF-α细胞比例 (percent stained cells) [3]: 18.4% | 分泌羊TNF-α细胞比例 (percent stained cells) [4]: 0.027% | 分泌牛TNF-α细胞比例 (percent stained cells) [5]: 0.051% | binding result [6]: no binding (tested: 0.5μg/mL (coating)) | binding result [7]: no binding (tested: 0.5μg/mL (coating)) | binding result [8]: no binding (tested: 0.5μg/mL (coating)) | binding result [9]: no binding (tested: 0.5μg/mL (coating)) | 效价 (ascites titre) (dilution (1:x)) [10]: 1.31e+07 | 分泌羊TNF-α细胞比例 (percent stained cells) [11]: 13.4%

Reference: patent CN110760483A (UNIV YANGZHOU, dated 2020)
